# Patent publication US20150118700
# T1: α-fructosyl hexapeptide (α-fructosyl-valyl-histidyl-leucyl-threonyl-propyl-glutamic acid)
# T1 chain: VHLTPE
# Target: T1, α-fructosyl hexapeptide …
Protein,"Specific activity (U/mg), 1 mM αF6P [U/mg]","specific activity on αF6P, fold over PnFX","αF6P oxidation activity, relative to αFVH oxidation activity designated to be 100 (relative (αFVH = 100))"
PnFX-62D/106K/110L/113K (protein) MAPSRANTSVIVVGGGGTIGSSTALHLVRSGYTPSNVTVLDAYPIPSSQSAGNDLNKIMGVDLRNPVDLQLALEARQMWNEDELFKKFFHNTGRLDCAHGEKDIAKLKSLYQKLVDAGLDATNEWLDSEDEILKRMPLLSRDQIKGWKAIFSKDGGWLAAAKAINAVGEYLRDQGVRFGFYGAGSFKAPLLAEGVCIGVETVDGTRYYADKVVLAAGAWSPTLVELHEQCVSKAWVYGHIQLTPEEAARYKNSPVVYNGDVGFFFEPNEHGVIKVCDEFPGFTRFKMHQPFGAKAPKRISVPRSHAKHPTDTIPDASDVSIRRAIATFMPQFKNKKMFNQAMCWCTDTADAALLICEHPEWKNFVLATGDSGHSFKLLPNIGKHVVELLEGTLADDLAHAWRWRPGSGDALKSRRSAPAKDLADMPGWNHDKPRANL,0.125,specific activity was elevated by 13.7 fold,
PnFX-62D/63H/106K/110L/113K/351S (protein) MAPSRANTSVIVVGGGGTIGSSTALHLVRSGYTPSNVTVLDAYPIPSSQSAGNDLNKIMGVDHRNPVDLQLALEARQMWNEDELFKKFFHNTGRLDCAHGEKDIAKLKSLYQKLVDAGLDATNEWLDSEDEILKRMPLLSRDQIKGWKAIFSKDGGWLAAAKAINAVGEYLRDQGVRFGFYGAGSFKAPLLAEGVCIGVETVDGTRYYADKVVLAAGAWSPTLVELHEQCVSKAWVYGHIQLTPEEAARYKNSPVVYNGDVGFFFEPNEHGVIKVCDEFPGFTRFKMHQPFGAKAPKRISVPRSHAKHPTDTIPDASDVSIRRAIATFMPQFKNKKMFNQAMCWCTDTADSALLICEHPEWKNFVLATGDSGHSFKLLPNIGKHVVELLEGTLADDLAHAWRWRPGSGDALKSRRSAPAKDLADMPGWNHDKPRANL,0.667,,
fructosyl peptide oxidase derived from Eupenicillium terrenum (EFP-T5) (protein) MAHSRASTKVVVVGGGGTIGSSTALHLIRSGYTPSNITVLDVYKTPSLQSAGHDLNKIMGIRLRNGPDLQLSLESLDMWQNDELFKPFFHQVGMIDCSSSKEGIENLRRKYQTLLDAGIGLEKTNVWLESEDEILAKAPNFTREQVKGWKGLFCTDGGWLAAAKAINAIGIFLQDKGVKFGFGDAGTFQQPLFAADGKTCIGLETTDGTKYFADKVVLAAGAWSPTLVDLEDQCVSKAWVFAHIQLTPKEADAYKNVPVVYDGEYGFFFEPDEYGVIKVCDEFPGFSRFKLHQPYGAASPKMISVPRSHAKHPTDTYPDASEVTIRKAIARFLPEFKDKELFNRTMCWCTDTADANLLICEHPKWKNFILATGDSGHSFKLLPNIGKYVVELLEGSLSQEMAGAWRWRPGGDALRSRRGAPAKDLAEMPGWKHDAHL,0,,
EFP-T5-62D/63H/106K/110L/113K/355S (protein) MAHSRASTKVVVVGGGGTIGSSTALHLIRSGYTPSNITVLDVYKTPSLQSAGHDLNKIMGIDHRNGPDLQLSLESLDMWQNDELFKPFFHQVGMIDCSSSKEGIEKLRRLYQKLLDAGIGLEKTNVWLESEDEILAKAPNFTREQVKGWKGLFCTDGGWLAAAKAINAIGIFLQDKGVKFGFGDAGTFQQPLFAADGKTCIGLETTDGTKYFADKVVLAAGAWSPTLVDLEDQCVSKAWVFAHIQLTPKEADAYKNVPVVYDGEYGFFFEPDEYGVIKVCDEFPGFSRFKLHQPYGAASPKMISVPRSHAKHPTDTYPDASEVTIRKAIARFLPEFKDKELFNRTMCWCTDTADSNLLICEHPKWKNFILATGDSGHSFKLLPNIGKYVVELLEGSLSQEMAGAWRWRPGGDALRSRRGAPAKDLAEMPGWKHDAHL,1.12,,
EFP-T5-R62D (protein) MAHSRASTKVVVVGGGGTIGSSTALHLIRSGYTPSNITVLDVYKTPSLQSAGHDLNKIMGIDLRNGPDLQLSLESLDMWQNDELFKPFFHQVGMIDCSSSKEGIENLRRKYQTLLDAGIGLEKTNVWLESEDEILAKAPNFTREQVKGWKGLFCTDGGWLAAAKAINAIGIFLQDKGVKFGFGDAGTFQQPLFAADGKTCIGLETTDGTKYFADKVVLAAGAWSPTLVDLEDQCVSKAWVFAHIQLTPKEADAYKNVPVVYDGEYGFFFEPDEYGVIKVCDEFPGFSRFKLHQPYGAASPKMISVPRSHAKHPTDTYPDASEVTIRKAIARFLPEFKDKELFNRTMCWCTDTADANLLICEHPKWKNFILATGDSGHSFKLLPNIGKYVVELLEGSLSQEMAGAWRWRPGGDALRSRRGAPAKDLAEMPGWKHDAHL,0.0043,,
ketoamine oxidase derived from Neocosmospora vasinfecta (NvFX) (protein) MTTPRKETTVLIIGGGGTIGSSTALHLLRAGYTPSNITVLDTYPIPSAQSAGNDLNKIMGIRLRNKVDLQLSLEARDMWRNDALFRPFFHNTGRLDCESSAEGVEGLRREYQKLVEAGVGLEETHEWLDSEEAILEKAPLLQREEIEGWKAIWSEEGGWLAAAKAINAIGEELQRQGVRFGFGGAGSFKRPLFADDGTTCIGVETVDGTQYHADKVVLAAGAWSPALVDLEEQCCSKAWVYAHMQLTPEEAAVYKGCPVVYHGDVGFFFEPNENGVIKVCDEFPGFTRFKQHQPYGAPAPKPVSVPRSHAKHPTDTYPDASEESIKRAVSTFLPRFKDKPLFNRALCWCTDTADSALLICEHPRWKNFILATGDSGHSFKLLPIIGKHVVELVEGRLADDLAEAWRWRPGQGDARKSIRAAPAKDLADMPGWKHDQDSESR,0,,
NvFX-62D/106K/110L (protein) MTTPRKETTVLIIGGGGTIGSSTALHLLRAGYTPSNITVLDTYPIPSAQSAGNDLNKIMGIDLRNKVDLQLSLEARDMWRNDALFRPFFHNTGRLDCESSAEGVEKLRRLYQKLVEAGVGLEETHEWLDSEEAILEKAPLLQREEIEGWKAIWSEEGGWLAAAKAINAIGEELQRQGVRFGFGGAGSFKRPLFADDGTTCIGVETVDGTQYHADKVVLAAGAWSPALVDLEEQCCSKAWVYAHMQLTPEEAAVYKGCPVVYHGDVGFFFEPNENGVIKVCDEFPGFTRFKQHQPYGAPAPKPVSVPRSHAKHPTDTYPDASEESIKRAVSTFLPRFKDKPLFNRALCWCTDTADSALLICEHPRWKNFILATGDSGHSFKLLPIIGKHVVELVEGRLADDLAEAWRWRPGQGDARKSIRAAPAKDLADMPGWKHDQDSESR,0.003,,
CFP-T7-H3 (protein) MTSNRADTRVIVVGGGGTIGSSTALHLVRSGYAPANITVLDTFEIPSAQSAGHDLNKIMGIALRNKVDLQMSLEARQMWKEDELFQPFFHNTGRMDCEHTPEGIEDLKKFYQALHDAGAGLEKTHAWLDNEDEILSKMPLLQRDQIQGWKAIWSQDGGWLAAAKAINAIGQFLKERGVKFGFGGAGSFKQPLFDDEGTTCIGVETADGTKYYADKVVLAAGAWSPTLVDLEDQCCSKAWVYAHIQLTPEEAAEYKGVPVVYNGEFGFFFEPDEFGVIKVCDEFPGFSRFKEHQPYGAPSPKRISVPRSHAKHPTDTYPDASEVSIKKAIATFLPRFQDKELFNRALCWCTDTADAALLMCEHPKWKNFILATGDSGHSFKILPNVGKYVVELIEGRLPEEMAYQWRWRPGGDALKSRRAAPPKDLADMPGWKHDPKL,,,0.0298
CFP-T7-H4 (protein) MTSNRADTRVIVVGGGGTIGSSTALHLVRSGYAPANITVLDTFEIPSAQSAGHDLNKIMGIALRNKVDLQMSLEARQMWKEDELFQPFFHNTGRMDCEHTPEGIEDLKKYYQALHDAGAGLEKTHAWLDNEDEILSKMPLLQRDQIQGWKAIWSQDGGWLAAAKAINAIGQFLKERGVKFGFGGAGSFKQPLFDDEGTTCIGVETADGTKYYADKVVLAAGAWSPTLVDLEDQCCSKAWVYAHIQLTPEEAAEYKGVPVVYNGEFGFFFEPDEFGVIKVCDEFPGFSRFKEHQPYGAPSPKRISVPRSHAKHPTDTYPDASEVSIKKAIATFLPRFQDKELFNRALCWCTDTADAALLMCEHPKWKNFILATGDSGHSFKILPNVGKYVVELIEGRLPEEMAYQWRWRPGGDALKSRRAAPPKDLADMPGWKHDPKL,,,0.0341
fructosyl amino acid oxidase derived from Aspergillus nidulans with serine 59 substituted with glycine (AnFX) (protein) MTPRANTKIIVVGGGGTMGSSTALHLLRAGYTPSNITVLDTCPIPSAQSAGYDLNKIMGIRLRNKPDLQLSLEALDMWKNDPLFKPFFHNVGMIDVSSTEEGIEGLRKKYQSLLDAGIGLEKTNFMLESEDEILAKAPHFTQEQIKGWKGLFCGDGGWLAAAKAINAIGQFLKEQGVKFGFGGAGTFKKPLFADAHEKTCIGVETVDGTKYYADKVVLAAGAWSSTLVDLEEQCVSKAWVFAHIQLTPAEAAAYKNTPVIYDGDYGFFFEPNENGIIKVCDEFPGFTHFKMHQPYGSPAPKPISVPRSHAKHPTDTYPHASEVTIKKAINRFLPRFNDKELFNRAMCWCTDTADANLLVCEHPRWKGFYLATGDSGHSFKLLPNIGKHVVELLEERLESVFKDAWRWRPGSGDALKSRRAAPAKDLADMPGWRNEAKM,0,,
AnFX-61D/105K/109L (protein) MTPRANTKIIVVGGGGTMGSSTALHLLRAGYTPSNITVLDTCPIPSAQSAGYDLNKIMGIDLRNKPDLQLSLEALDMWKNDPLFKPFFHNVGMIDVSSTEEGIEKLRKLYQSLLDAGIGLEKTNFMLESEDEILAKAPHFTQEQIKGWKGLFCGDGGWLAAAKAINAIGQFLKEQGVKFGFGGAGTFKKPLFADAHEKTCIGVETVDGTKYYADKVVLAAGAWSSTLVDLEEQCVSKAWVFAHIQLTPAEAAAYKNTPVIYDGDYGFFFEPNENGIIKVCDEFPGFTHFKMHQPYGSPAPKPISVPRSHAKHPTDTYPHASEVTIKKAINRFLPRFNDKELFNRAMCWCTDTADANLLVCEHPRWKGFYLATGDSGHSFKLLPNIGKHVVELLEERLESVFKDAWRWRPGSGDALKSRRAAPAKDLADMPGWRNEAKM,0.106,,
AnFX-61D/62H/101K/105K/109L/112K/355S (protein) MTPRANTKIIVVGGGGTMGSSTALHLLRAGYTPSNITVLDTCPIPSAQSAGYDLNKIMGIDHRNKPDLQLSLEALDMWKNDPLFKPFFHNVGMIDVSSTEKGIEKLRKLYQKLLDAGIGLEKTNFMLESEDEILAKAPHFTQEQIKGWKGLFCGDGGWLAAAKAINAIGQFLKEQGVKFGFGGAGTFKKPLFADAHEKTCIGVETVDGTKYYADKVVLAAGAWSSTLVDLEEQCVSKAWVFAHIQLTPAEAAAYKNTPVIYDGDYGFFFEPNENGIIKVCDEFPGFTHFKMHQPYGSPAPKPISVPRSHAKHPTDTYPHASEVTIKKAINRFLPRFNDKELFNRAMCWCTDTADSNLLVCEHPRWKGFYLATGDSGHSFKLLPNIGKHVVELLEERLESVFKDAWRWRPGSGDALKSRRAAPAKDLADMPGWRNEAKM,0.283,,
